Experimental data: PMC3861539

Experiments:
human complement C3b [1] = molecular target: human complement C3b (UniProt P01024); assay: ELISA; conditions: C3b-coated wells, 50 nM Fg detected with peroxidase-conjugated anti-Fg antibody, read off a plot
human complement C3b [2] = molecular target: human complement C3b (UniProt P01024); assay: flow cytometry on bacteria; conditions: Alexa488-labeled Fg 60 µg/ml; Efb (mutants) 0.5 µM; serum-opsonized S. aureus; buffer control est. 65 MFI; parent: est. 1300; read off a plot
human fibrinogen (human) = human fibrinogen (human) (UniProt P02671)
Sequence of UniProt P02671 (P02671 36-866, chain 1 of 3): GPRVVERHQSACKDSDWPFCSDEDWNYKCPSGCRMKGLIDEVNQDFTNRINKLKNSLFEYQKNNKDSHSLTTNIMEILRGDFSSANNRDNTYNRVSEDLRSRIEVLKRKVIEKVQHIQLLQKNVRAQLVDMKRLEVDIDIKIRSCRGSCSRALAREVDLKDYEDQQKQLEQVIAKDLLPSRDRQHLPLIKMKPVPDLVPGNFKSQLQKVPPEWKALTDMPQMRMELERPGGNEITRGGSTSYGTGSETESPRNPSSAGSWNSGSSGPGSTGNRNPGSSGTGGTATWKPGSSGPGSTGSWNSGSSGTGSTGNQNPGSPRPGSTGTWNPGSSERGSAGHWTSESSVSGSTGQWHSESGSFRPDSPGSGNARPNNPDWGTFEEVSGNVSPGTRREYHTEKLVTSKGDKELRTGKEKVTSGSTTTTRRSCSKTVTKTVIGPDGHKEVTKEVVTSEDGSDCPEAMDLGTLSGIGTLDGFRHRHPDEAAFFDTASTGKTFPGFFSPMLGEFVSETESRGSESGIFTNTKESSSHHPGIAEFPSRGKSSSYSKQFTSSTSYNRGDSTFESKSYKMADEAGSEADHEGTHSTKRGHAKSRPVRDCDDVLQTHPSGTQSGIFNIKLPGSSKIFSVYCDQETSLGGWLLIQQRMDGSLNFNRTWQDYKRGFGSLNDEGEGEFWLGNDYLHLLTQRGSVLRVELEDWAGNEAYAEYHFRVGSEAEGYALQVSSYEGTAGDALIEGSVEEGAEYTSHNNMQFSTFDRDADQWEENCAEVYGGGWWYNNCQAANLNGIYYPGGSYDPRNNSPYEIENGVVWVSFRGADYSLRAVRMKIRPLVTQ
Sequence of UniProt P02671 (P02675 45-491, chain 2 of 3, further chain): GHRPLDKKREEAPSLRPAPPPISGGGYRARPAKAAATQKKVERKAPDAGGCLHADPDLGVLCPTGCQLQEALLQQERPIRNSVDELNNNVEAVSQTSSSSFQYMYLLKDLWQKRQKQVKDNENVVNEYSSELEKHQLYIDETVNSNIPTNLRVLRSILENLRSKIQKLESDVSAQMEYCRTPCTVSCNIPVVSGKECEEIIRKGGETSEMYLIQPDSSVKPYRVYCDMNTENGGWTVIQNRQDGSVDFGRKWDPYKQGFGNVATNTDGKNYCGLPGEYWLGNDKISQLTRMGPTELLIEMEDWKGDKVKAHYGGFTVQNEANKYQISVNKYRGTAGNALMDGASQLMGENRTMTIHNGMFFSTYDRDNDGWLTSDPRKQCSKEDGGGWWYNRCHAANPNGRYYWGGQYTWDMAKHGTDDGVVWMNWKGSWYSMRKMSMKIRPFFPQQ
Sequence of UniProt P02671 (P02679 27-453, chain 3 of 3, further chain): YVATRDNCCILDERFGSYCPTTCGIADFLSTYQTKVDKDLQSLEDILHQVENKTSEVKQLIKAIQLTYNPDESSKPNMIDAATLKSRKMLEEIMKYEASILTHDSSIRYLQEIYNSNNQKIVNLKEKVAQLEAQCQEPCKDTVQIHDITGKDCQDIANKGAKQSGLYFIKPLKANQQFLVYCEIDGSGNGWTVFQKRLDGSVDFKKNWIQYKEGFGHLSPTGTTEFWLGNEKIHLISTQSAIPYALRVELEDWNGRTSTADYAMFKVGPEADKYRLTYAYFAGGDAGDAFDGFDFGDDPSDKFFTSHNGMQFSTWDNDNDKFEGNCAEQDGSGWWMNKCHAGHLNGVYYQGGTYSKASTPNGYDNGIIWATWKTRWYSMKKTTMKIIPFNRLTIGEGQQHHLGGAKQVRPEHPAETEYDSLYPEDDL

Substance | response (human complement C3b [1]; Efb about 6 nM (fourth point, read from the x axis), parent: est. 0.93) [OD450] | response (human complement C3b [1]; Efb about 25 nM (highest point, read from the x axis), parent: est. 0.91) [OD450] | response (human complement C3b [2]) [MFI] | inhibition of phagocytosis of fluorescent S. aureus by human neutrophils in 2.5% human plasma, dose response of Efb (needs the interaction with C3b as well) (human fibrinogen (human)) [µM]
GST-tagged full-length Extracellular fibrinogen binding protein (Efb), wild type (from UniProt A6QG59) R131E; N138E | 0.2 | 0.23 | 180 | –
His-tagged Efb, wild type (from UniProt A6QG59 30-165) (natural protein) | – | – | – | 0.08
